Legend:
Settings in all cases: protein: recombinant; tags: N-terminal His6 (pET28a)
Nab3 RRM K363A = biological target: T1, Nab3 RRM K363A (Saccharomyces cerevisiae, UniProt P38996 329-419, K363A); assay: pull-down (streptavidin, anti-His blot); 25 uM RNA; 10 mM Tris-HCl pH 7.8, 50 mM NaCl, 1 mM EDTA, 5% glycerol, 2.5 mM DTT; 30 min at 15 C, then beads 2 h at 4 C; washes with 0.1% Tween-20
T1 sequence: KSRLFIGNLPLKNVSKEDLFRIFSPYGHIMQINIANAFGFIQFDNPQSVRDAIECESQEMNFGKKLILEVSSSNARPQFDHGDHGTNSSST

Nab3 RRM S399A = biological target: T2, Nab3 RRM S399A (Saccharomyces cerevisiae, UniProt P38996 329-419, S399A); assay: as above
T2 sequence: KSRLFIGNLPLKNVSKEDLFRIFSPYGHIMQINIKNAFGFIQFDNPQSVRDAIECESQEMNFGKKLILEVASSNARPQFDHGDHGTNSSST

Nab3 RRM K363R = biological target: T3, Nab3 RRM K363R (Saccharomyces cerevisiae, UniProt P38996 329-419, K363R); assay: pull-down (streptavidin, anti-His blot densitometry); 25 uM RNA; protein 0-60 uM; apparent Kd; 10 mM Tris-HCl pH 7.8, 50 mM NaCl, 1 mM EDTA, 5% glycerol, 2.5 mM DTT; 30 min at 15 C, then beads 2 h at 4 C; washes with 0.1% Tween-20
T3 sequence: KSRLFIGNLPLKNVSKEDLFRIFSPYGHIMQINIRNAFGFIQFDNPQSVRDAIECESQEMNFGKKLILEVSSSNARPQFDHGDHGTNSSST

Nab3 RRM = biological target: T4, Nab3 RRM (Saccharomyces cerevisiae, UniProt P38996 329-419); assay: as above
T4 sequence: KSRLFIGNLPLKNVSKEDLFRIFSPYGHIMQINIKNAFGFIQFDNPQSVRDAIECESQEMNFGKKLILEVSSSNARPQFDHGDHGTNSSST

B1: snR47 RNA probe (ssRNA)
RNA: UUUCUUUUUUCUUAUUCUUAUU
Nab3 RRM K363A
  binding result: no binding
Nab3 RRM S399A
  binding result: no binding
Nab3 RRM K363R
  Kd: 41.9 µM
Nab3 RRM
  Kd: 13.7 µM
